The results in this text go back to publication PMC4400149, “The Carboxy-Terminal Domain of Erb1 Is a Seven-Bladed ß-Propeller that Binds RNA” (PLoS ONE, 2015).

Data set [1] addresses T1, ChErb1 432-801 (C-terminal seven-bladed beta-propeller) (Chaetomium thermophilum var. thermophilum) (UniProt G0SCK6).
T1 sequence: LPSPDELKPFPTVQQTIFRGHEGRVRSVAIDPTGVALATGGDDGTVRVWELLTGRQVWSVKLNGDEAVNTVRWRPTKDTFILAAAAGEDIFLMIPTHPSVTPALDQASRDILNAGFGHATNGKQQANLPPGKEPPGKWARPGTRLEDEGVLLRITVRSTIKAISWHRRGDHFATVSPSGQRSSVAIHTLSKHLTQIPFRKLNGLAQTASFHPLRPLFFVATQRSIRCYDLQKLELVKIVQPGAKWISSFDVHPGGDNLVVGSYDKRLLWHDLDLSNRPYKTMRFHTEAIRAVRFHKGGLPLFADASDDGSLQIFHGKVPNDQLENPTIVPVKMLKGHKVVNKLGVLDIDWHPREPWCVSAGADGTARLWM
Description: fluorescence titration (intrinsic Trp). To be noted: apparent KD; emission at 315 nm; 1.5 uM protein; Fluorescence: 20 mM Hepes pH 7.5, 150 mM NaCl, 5% glycerol, 2 mM beta-mercaptoethanol, 25 C; bead pull-down: 50 mM Tris pH 8, 100 mM NaCl, 5 mM MgCl2, 3 mM ….

Data set [2] deals with T2, Erb1 (Eukaryotic Ribosome Biogenesis 1) from Saccharomyces cerevisiae (Saccharomyces cerevisiae, UniProt Q04660 1-807).
T2 construct: Erb1, Saccharomyces cerevisiae, cloned from genomic DNA; 807 residues; Vector pET28-NKI/LIC 6His/3C: N-terminal 6xHis tag followed by a 3C protease site; no cleavage of the tag is told; also called 6xHis-Erb1; source: E. coli BL21 Codon Plus, purified (IMAC, size exclusion chromatography)
T2 sequence (looked up): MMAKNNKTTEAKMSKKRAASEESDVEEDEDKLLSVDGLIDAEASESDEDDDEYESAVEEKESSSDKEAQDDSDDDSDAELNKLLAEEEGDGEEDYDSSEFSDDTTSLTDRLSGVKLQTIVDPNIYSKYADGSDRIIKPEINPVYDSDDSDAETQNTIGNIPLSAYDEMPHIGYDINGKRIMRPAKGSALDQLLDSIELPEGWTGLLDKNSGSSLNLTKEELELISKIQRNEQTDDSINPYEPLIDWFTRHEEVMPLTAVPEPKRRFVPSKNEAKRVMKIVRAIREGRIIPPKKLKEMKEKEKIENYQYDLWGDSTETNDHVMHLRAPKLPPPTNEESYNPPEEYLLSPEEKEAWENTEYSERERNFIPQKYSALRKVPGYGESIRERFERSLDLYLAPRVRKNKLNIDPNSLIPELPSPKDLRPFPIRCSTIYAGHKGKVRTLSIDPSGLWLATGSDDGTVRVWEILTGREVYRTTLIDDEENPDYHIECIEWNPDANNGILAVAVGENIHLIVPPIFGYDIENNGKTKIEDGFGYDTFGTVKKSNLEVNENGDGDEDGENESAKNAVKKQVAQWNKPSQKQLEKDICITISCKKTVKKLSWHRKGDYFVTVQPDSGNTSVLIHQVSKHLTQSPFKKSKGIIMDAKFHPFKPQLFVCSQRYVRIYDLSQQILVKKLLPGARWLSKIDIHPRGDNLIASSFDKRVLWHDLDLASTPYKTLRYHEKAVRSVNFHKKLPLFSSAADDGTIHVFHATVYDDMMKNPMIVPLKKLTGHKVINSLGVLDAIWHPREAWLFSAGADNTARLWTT
Nature of the data set: SEC; purified Nop7 and Erb1 mixed in equimolar amounts, Superdex200 16/60 in SE buffer (20mM Hepes pH 7.5; 0.25M NaCl; 2 mM β-mercaptoethanol, 5% glycerol); fractions of the heterodimer collected. To be noted: both partners purified. (SEC sorts molecules by how far they enter the pores of the column.)

Data set [3] deals with T3, ChErb1 432-801 (C-terminal seven-bladed beta-propeller) (Chaetomium thermophilum var. …, UniProt G0SCK6 432-801).
T3 sequence: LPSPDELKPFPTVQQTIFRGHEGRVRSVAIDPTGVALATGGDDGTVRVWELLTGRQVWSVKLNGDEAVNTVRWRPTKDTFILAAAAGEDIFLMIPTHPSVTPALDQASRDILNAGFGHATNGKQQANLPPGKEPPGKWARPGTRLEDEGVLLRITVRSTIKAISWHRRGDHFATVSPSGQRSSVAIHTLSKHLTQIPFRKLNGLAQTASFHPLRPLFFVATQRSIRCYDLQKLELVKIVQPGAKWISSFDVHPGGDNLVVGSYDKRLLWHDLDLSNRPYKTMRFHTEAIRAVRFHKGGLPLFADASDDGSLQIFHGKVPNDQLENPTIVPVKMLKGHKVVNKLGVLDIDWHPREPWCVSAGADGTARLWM
Nature of the data set: BLI; Fluorescence: 20 mM Hepes pH 7.5, 150 mM NaCl, 5% glycerol, 2 mM beta-mercaptoethanol, 25 C; bead pull-down: 50 mM Tris pH 8, 100 mM NaCl, 5 mM MgCl2, 3 mM DTT, 0.1% Triton X-100, 0.1 mg/ml BSA, room temperature; BLI conditions not in material. To be noted: protein: recombinant; tags: N-terminal 6xHis with 3C site (pET28-NKI/LIC 6His/3C); single strand. Background: Biolayer interferometry detects binding as a change in optical thickness at a sensor tip.

Consider free poly(U), for which the Kd in data set [1] was 3 µM.

B1: Nop7 from Saccharomyces cerevisiae (natural protein, UniProt P53261 1-605, looked up)
chain: MRIKKKNTRGNARNFITRSQAVRKLQVSLADFRRLCIFKGIYPREPRNKKKANKGSTAPTTFYYAKDIQYLMHEPVLAKFREHKTFARKLTRALGRGEVSSAKRLEENRDSYTLDHIIKERYPSFPDAIRDIDDALNMLFLFSNLPSTNQVSSKIINDAQKICNQWLAYVAKERLVRKVFVSIKGVYYQANIKGEEVRWLVPFKFPENIPSDVDFRIMLTFLEFYSTLLHFVLYKLYTDSGLIYPPKLDLKKDKIISGLSSYILESRQEDSLLKLDPTEIEEDVKVESLDASTLKSALNADEANTDETEKEEEQEKKQEKEQEKEQNEETELDTFEDNNKNKGDILIQPSKYDSPVASLFSAFVFYVSREVPIDILEFLILSCGGNVISEAAMDQIENKKDIDMSKVTHQIVDRPVLKNKVAGRTYIQPQWIFDCINKGELVPANKYLPGEALPPHLSPWGDAIGYDPTAPVEEGEEEESESESESEDQVEEEDQEVVAGEEDDDDDEELQAQKELELEAQGIKYSETSEADKDVNKSKNKKRKVDEEEEEKKLKMIMMSNKQKKLYKKMKYSNAKKEEQAENLKKKKKQIAKQKAKLNKLDSKK
notes: Nop7, Saccharomyces cerevisiae, cloned from genomic DNA; called full length Nop7 in the results; Vector pNIC28-Bsa4: N-terminal 6xHis tag followed by a TEV site; no cleavage of the tag is told; also called 6xHis-Nop7; source: E. coli BL21 Codon Plus, purified (IMAC, size exclusion chromatography)
Turning to B1, the binding result in data set [2] is “binds”.
For the molecule UUUUUUUUUUUUUUU (ssRNA) [biotinylated poly(U) 15-mer], the Kd in data set [3] is 0.17 µM.
